Data: patent US20210369776A1 (published 2021)

T1: EBV LMP2 (latent membrane protein 2) peptide on HLA-A*02:01 (human)
T1 peptide: LLWTLVVLL

B1: L202 TCR (TCR, V domains shown)
Valpha: EDVEQSLFLSVREGDSSVINCTYTDSSSTYLYWYKQEPGAGLQLLTYIFSNMDMKQDQRLTVLLNKKDKHLSLRIADTQTGDSAIYFCAESIPSGYNKLIFGAGTRLAVHP
Vbeta: GVAQSPRYKIIEKRQSVAFWCNPISGHATLYWYQQILGQGPKLLIQFQNNGVVDDSQLPKDRFSAERLKGVDSTLKIQPAKLEDSAVYLCASSLGLAGEDTQYFGPGTRLTVL
B2: L201 TCR (TCR, V domains shown)
Valpha: DQQVKQNSPSLSVQEGRISILNCDYTNSMFDYFLWYKKYPAEGPTFLISISSIKDKNEDGRFTVFLNKSAKHLSLHIVPSQPGDSAVYFCAAPPPSGNQFYFGTGTSLTVIP
Vbeta: DVKVTQSSRYLVKRTGEKVFLECVQDMDHENMFWYRQDPGLGLRLIYFSYDVKMKEKGDIPEGYSVSREKKERFSLILESASTNQTSMYLCASSTRLAGAQRDTQYFGPGTRLTVL
B3: L203 TCR (TCR, V domains shown)
Valpha: DQQVKQNSPSLSVQEGRISILNCDYTNSMFDYFLWYKKYPAEGPTFLISISSIKDKNEDGRFTVFLNKSAKHLSLHIVPSQPGDSAVYFCAAKLPQAAGNKLTFGGGTRVLVKP
Vbeta: MVIQNPRYQVTQFGKPVTLSCSQTLNHNVMYWYQQKSSQAPKLLFHYYDKDFNNEADTPDNFQSRRPNTSFCFLDIRSPGLGDAAMYLCATSSSIAGDTRNNEQFFGPGTRLTVL

How the values were obtained:
[1] = target: T1, EBV LMP2 (latent membrane protein 2) …; experiment: killing
[2] = target: T1, EBV LMP2 (latent membrane protein 2) …; experiment: cytokine release

Binder | binding result [1] | binding result [2]
B1 | recognises | 
B2 | recognises | 
B3 |  | recognises
